In patent publication US20110046075A1:

Key:
[1] = target: Recombinant C3d (human C3 residues 974-1265, C1010A, with N-terminal G-S-R-S-T) (human) (UniProt P01024); test: ITC at 25 C, Efb titrated into recombinant C3d
[2] = target: Recombinant C3d (human C3 residues 974-1265, C1010A, with N-terminal G-S-R-S-T) (human) (UniProt P01024); test: ITC at 25 C, Efb titrated into recombinant C3d, single-site model
[3] = target: Recombinant C3d (human C3 residues 974-1265, C1010A, with N-terminal G-S-R-S-T) (human) (UniProt P01024); test: ITC (Example 3, FIG. 17), Efb titrated into recombinant C3d
[4] = target: Recombinant C3d (human C3 residues 974-1265, C1010A, with N-terminal G-S-R-S-T) (human) (UniProt P01024); test: isothermal titration calorimetry, Efb titrated into recombinant C3d
[5] = target: Recombinant C3d (human C3 residues 974-1265, C1010A, with N-terminal G-S-R-S-T) (human) (UniProt P01024); test: ITC (Example 3, FIG. 17), Efb-C titrated into recombinant C3d
[6] = target: Recombinant C3d (human C3 residues 974-1265, C1010A, with N-terminal G-S-R-S-T) (human) (UniProt P01024); test: ITC at 25 C, Efb-C titrated into recombinant C3d, single-site model
[7] = target: Recombinant C3d (human C3 residues 974-1265, C1010A, with N-terminal G-S-R-S-T) (human) (UniProt P01024); test: isothermal titration calorimetry, Efb-C titrated into recombinant C3d
[8] = target: Recombinant C3d (human C3 residues 974-1265, C1010A, with N-terminal G-S-R-S-T) (human) (UniProt P01024); test: ITC at 25 C, Efb-C titrated into recombinant C3d
[9] = target: Recombinant C3d (human C3 residues 974-1265, C1010A, with N-terminal G-S-R-S-T) (human) (UniProt P01024); test: ITC, model of two non-equivalent sites
[10] = target: Recombinant C3d (human C3 residues 974-1265, C1010A, with N-terminal G-S-R-S-T) (human) (UniProt P01024); test: isothermal titration calorimetry, Ehp titrated into recombinant C3d; second site of a model with two non-equivalent sites
[11] = target: Recombinant C3d (human C3 residues 974-1265, C1010A, with N-terminal G-S-R-S-T) (human) (UniProt P01024); test: isothermal titration calorimetry, Ehp titrated into recombinant C3d; first site
[12] = target: Recombinant C3d (human C3 residues 974-1265, C1010A, with N-terminal G-S-R-S-T) (human) (UniProt P01024); test: isothermal titration calorimetry, Ehp titrated into recombinant C3d; first site of a model with two non-equivalent sites
[13] = target: Recombinant C3d (human C3 residues 974-1265, C1010A, with N-terminal G-S-R-S-T) (human) (UniProt P01024); test: ITC, Ehp titrated into recombinant C3d, model of two non-equivalent sites, first site
[14] = target: Recombinant C3d (human C3 residues 974-1265, C1010A, with N-terminal G-S-R-S-T) (human) (UniProt P01024); test: ITC, Ehp titrated into recombinant C3d, model of two non-equivalent sites, second site
[15] = target: Recombinant C3d (human C3 residues 974-1265, C1010A, with N-terminal G-S-R-S-T) (human) (UniProt P01024); test: isothermal titration calorimetry, Ehp titrated into recombinant C3d; second site

Recombinant C3d (human C3 residues 974-1265, C1010A, with N-terminal G-S-R-S-T) (human), sequence (P01024 other isoform, or with tags, fused parts or gaps C1010A C1010A limits assumed, form in doubt): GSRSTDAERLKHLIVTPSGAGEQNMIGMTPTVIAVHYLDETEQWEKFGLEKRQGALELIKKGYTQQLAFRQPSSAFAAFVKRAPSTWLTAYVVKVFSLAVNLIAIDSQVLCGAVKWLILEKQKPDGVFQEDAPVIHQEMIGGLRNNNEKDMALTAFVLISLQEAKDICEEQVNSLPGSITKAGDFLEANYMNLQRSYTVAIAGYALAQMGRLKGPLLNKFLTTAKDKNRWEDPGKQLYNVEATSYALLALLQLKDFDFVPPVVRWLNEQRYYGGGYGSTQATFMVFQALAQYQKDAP

**Q.** Which enthalpy of binding (ΔH) [1] does the source give for “Extracellular fibrinogen-binding protein (Efb), recombinant full-length, S. aureus strain Mu50 (from UniProt P0C6P2 29-165)” here?
**A.** -9 kcal/mol

**Q.** What about the Kd [2] of the same substance?
**A.** 2 nM

**Q.** What about the Kd [3] of the same substance?
**A.** 2 nM

**Q.** And the Kd [4]?
**A.** 4 nM

**Q.** And the N [4]?
**A.** 1

**Q.** What about the ΔH [4] of the same substance?
**A.** -9.1 kcal/mol

**Q.** With “Efb-C, C-terminal C3-binding domain of Efb from S. aureus strain Mu50 (from UniProt P0C6P2 94-165)” as the substance, how does the Kd [5] read?
**A.** 2 nM

**Q.** And the Kd [6]?
**A.** 2 nM

**Q.** What about the N [7] of the same substance?
**A.** 1

**Q.** And the enthalpy of binding (ΔH) [8]?
**A.** -8.5 kcal/mol

**Q.** How did the change in ΔG between the first and second sites [9] turn out when “SAV1155/Ehp (Efb Homologous Protein), recombinant mature form, S. aureus strain Mu50” was run?
**A.** 3 kcal/mol

**Q.** What about the unfavorable change in enthalpy release between the first and second sites [9] of the same substance?
**A.** 27 kcal/mol

**Q.** And the Kd [10]?
**A.** 33 nM

**Q.** What about the N [11] of the same substance?
**A.** 0.5

**Q.** And the ΔH [11]?
**A.** -21.1 kcal/mol

**Q.** And the Kd [12]?
**A.** 0.2 nM

**Q.** And the Kd [13]?
**A.** 0.2 nM

**Q.** What about the Kd [14] of the same substance?
**A.** 33 nM

**Q.** And the N [15]?
**A.** 0.5

**Q.** And the ΔH [15]?
**A.** 5.7 kcal/mol
